Measurements reported in the Human Domainome abundance scans (Beltran et al. 2025).

B1: Probable E3 ubiquitin-protein ligase MID2, residues 191 to 235; numbered along this chain, Q9UJV3 (parent)
chain: RGITCLDHENEKVNMYCVSDDQLICALCKLVGRHRDHQVASLNDR

Variants of: B1
Assay: abundance fitness (aPCA) (normalised: wild type 0, dead -1); higher = more abundant; growth selection in yeast, the domain comes from the species named
Conditions: Homo sapiens

Abundance fitness, by site and new letter:
D21: H -0.283; V -0.585; K 0.011; L -0.526
A26: F -0.277; K -0.051; Y -0.092; G 0.103; Q -0.017; V -0.174; T -0.068; I -0.621; R 0.006; H -0.169; P -0.018; S -0.006; D 0.13; M -0.359; L -0.296; E 0.031
E11: F -0.248; M -0.174; Q -0.097; P -0.838; W -0.215; V -0.519; G -0.245; C -0.063; Y 0.129; A -0.177; L -0.524; I -0.334; K -0.33; S -0.236; T -0.223; R -0.171
V18: D 0.065; P -0.025; T 0.2; A 0.054; I -0.165; G 0.011; L -0.024; S 0.027; F -0.112; W -0.19; C 0.036; R 0.056; N -0.125; K 0.079
K29: M -0.029; P -0.054; D -0.211; H -0.032; E -0.039; A 0.063; F -0.132; G 0.097; N 0.153; I -0.037; C -0.144; L -0.286
E9: N 0.056; K 0.073; F 0.1; P 0.173; D 0.017; Q 0.021; V -0.299; R -0.024; L 0.032; T 0.151; S -0.033; W -0.252; C 0.028; A 0.098; I -0.128; Y -0.051; M 0.022
C17: W -0.792; L -0.775; E -0.163; K -0.01; P -0.319; S -0.157; T -0.269; Y -0.635; V -0.486; G -0.129; N -0.212; R -0.304; M -0.517; Q -0.369
C28: V -1.11; E -0.897; Q -0.505; A -0.805; G -0.58; R -1.05; M -0.942; D -0.469; S -0.678; W -0.997; T -0.541; Y -1.14; K -0.906; P -0.439
M15: K -0.176; P -0.251; A 0.063; F -0.069; V -0.277; C 0.259; G 0.081; T -0.1; W 0.11; R -0.118; D 0.001; L 0.003; Q 0.166
S19: V -0.032; Y -0.296; P -0.047; K -0.049; R -0.041; Q 0.097; F -0.146; L -0.08; G -0.005; W -0.211; N -0.092; M -0.067; A 0.107; T 0.049; D -0.18; E 0.07; H 0.093
D20: K -0.357; W -0.809; T -0.706; C -0.178; N -0.456; H -0.459; E -0.096; P -0.625; M -1.19; Y -1.43; V -1.03; G -0.589; L -1.08; A -0.77
L27: G -0.058; K 0.517; W -0.145; I -0.466; D -0.029; V 0.039; N 0.311; M -0.012; T -0.144; Y -0.263; F 0.099; E 0.144; Q 0.263; S 0.052; H -0.03; P -0.215
